Experimental data taken from patent publication US20260108496A1, “METHODS FOR REPROGRAMING EXHAUSTED T CELLS AND BOOSTING IMMUNE CHECKPOINT BLOCKADE THERAPY FOR CANCER” (Ohio State Innovation Foundation, priority 2022, published 2026).

Columns and labels:
Dysf. CD8+ T cells = experiment: reprogramming treatment of Dysf. (chronic TCR plus TGFβ1) human CD8+ T cells; format: cell-based; details: sorted most dysfunctional subset, added to RepSox
Description: On day 7, viable CD8+ T cells were FACS-purified using the Sony MA900 cell sorter. Purified CD8+ T cells were then continuously stimulated in plates coated with anti-CD3 only (5 ug/ml). Media was replenished every 2-3 days, and cells were incubated at 37 C and 5% CO2 throughout the duration of the experiment. Human TGFβ1 (5 ng/ml, Peprotech) was added to the media starting on day 7. Treatment with RepSox (25 μM) and SB4 (10 μM) (MedChemExpress LLC) or vehicle control (DMSO, ThermoFisher) were added to the media starting on day 14 or 21. Vitamin C (100 μM, MedChemExpress LLC) was added to the media starting on day 21. For the acute TCR stimulation condition, anti-CD3 was no longer added to the media starting on day 7. For recovery experiments in FIG. 16 and FIGS. 22 and 26, CD8+ T cells were rested from TCR stimulation and TGFβ1 starting on day 28 for 7-14 days in T cell media containing recombinant human IL-15 only (10 ng/ml).
On days 7, 14, 21, and 28 (and day 35 and 42 for recovery experiments), human CBMCs were stimulated with PMA/Ionomycin (Cell Stimulation Cocktail plus protein transport inhibitors, eBioscience) for 3 hours at 37° C., 5% CO2. Incubation was followed immediately by antibody intracellular staining for flow cytometry.
Human CBMCs from ex vivo stimulation experiments (acute or chronic TCR, and chronic TCR+TGFβ1) were labeled with 5(6)-Carboxyfluorescein diacetate N-succinimidyl ester (CFSE) (1 μM, Sigma) by staining in PBS for 7 minutes at room temperature, followed by quenching with 20% FBS. Proliferation was tracked on days 35 and 42 by assessing CFSE fluorescence via flow cytometry. Each peak of CFSE fluorescence signal represents one cell division cycle.

human CD8+ T cells [1] = experiment: whole-genome bisulfite sequencing of human CD8+ T cells; format: cell-based; details: combined with RepSox
Description: Human CD8+ T cells were sorted on days 0 (naïve), 7, and 28, and genomic DNA was extracted and bisulfite-treated to convert unmethylated cytosine to uracil residues using the EZ DNA Methylation-Direct Kit (Zymo). DNA libraries were prepared using Swift Accel-NGS® D Methyl-Seq DNA Library Kit according to the manufacturer's protocol. The libraries were purified by the AMPureXP Beads followed by QC using Qubit method, and the purified DNA was captured on an Illumina flow cell for cluster generation. Libraries were sequenced on the NovaSeq-S2 platform following the manufacturer's protocols. Sequencing data were aligned to the Hg38 genome using BSMAP. Adapter were trimmed from FASTQ sequences (trimglore) and mapped to the hg38 genome using the BSMAP v. 2.74 software. CpGs were extracted by the methratio.py in the BSMAP package. Differential analysis of CpG methylation among the datasets was determined with a Bayesian hierarchical model to detect regional methylation differences with at least three CpG site. Differentially methylated regions (DMRs) were identified using Bioconductor package DSS and custom R scripts with a threshold of 30% change in methylation ratio and P-value <0.01 with at least 10 reads per CpG site as a cutoff.

P14 CD8 T cells = experiment: in-vitro co-culture of P14 CD8 T cells with CT2A-gp33 tumor cells (Example 1); format: cell-based, mouse; details: P14 cells
Source text: To study their epigenetic (re)programming, we developed a novel in-vitro model of CD8 T cell exhaustion. First, we optimized conditions for in-vitro co-culture of gp33-expressing murine brain tumor cells (CT2A-gp33) and TCR transgenic gp33-specific CD8 T cells (P14 cells). We were able to enforce differentiation of anti-tumor CD8 T cells under their persistent TCR stimulation by repeated exposure to the tumor antigen and tumor-derived factors, such as TGFβ1. […] However, with prolonged exposure to the tumor antigen, the effector CD8 T cells progressively lose cytokine production and tumor killing activity (FIGS. 8A, 8B, and 8C).
To assess the impact of TGFβ1 signaling on the progression of CD8 T cells toward dysfunction, we treated co-cultures with TGFβ1 or RepSox (also known as E-616452) (2-(3-(6-Methylpyridine-2-yl)-1H-pyrazol-4-yl)-1,5-naphthyridine) as shown in the formula: […]
RepSox is a potent selective inhibitor of the TGFβ type 1 receptor (ALK5)—for 11 days after effector differentiation was complete (day 6).
We also examined the impact of BMP-2/4 signaling on RepSox-treated P14 CD8 T cells. […] Taken together, our findings indicate that TGFβ1-signaling not only accelerates the development of T cell dysfunction, but also maintains silencing of lymphoid homing markers on CD8 T cells. Importantly, our findings support the feasibility of using this novel in-vitro model as a tractable tool that can guide our in-vivo work by providing first-line mechanistic studies.

human CD8+ T cells [2] = experiment: chronic TCR stimulation of human CBMCs in the presence of TGFβ1; format: cell-based
Description: For “Weak TCR” stimulation, 30 ng/ml of purified monoclonal anti-human CD3 (clone: OKT3; BioLegend) was continuously added onto the seeded CBMCs to provide TCR stimulation plus natural costimulation via CD80/CD86 on Fc-expressing CBMCs that survive in the first few days. For “Strong TCR” stimulation setting, flat-bottom plates were coated with purified monoclonal anti-human CD3 (5 ug/ml) and anti-human CD28 (1 ug/ml) (clone: CD28.2; BioLegend) at 4° C. overnight, then CMBCs were isolated and seeded in complete T cell medium as described above on day 0. On day 7, viable CD8+ T cells were FACS-purified using the Sony MA900 cell sorter. Purified CD8+ T cells were then continuously stimulated in plates coated with anti-CD3 only (5 ug/ml). Media was replenished every 2-3 days, and cells were incubated at 37 C and 5% CO2 throughout the duration of the experiment. Human TGFβ1 (5 ng/ml, Peprotech) was added to the media starting on day 7. Treatment with RepSox (25 μM) and SB4 (10 μM) (MedChemExpress LLC) or vehicle control (DMSO, ThermoFisher) were added to the media starting on day 14 or 21. Vitamin C (100 μM, MedChemExpress LLC) was added to the media starting on day 21. For the acute TCR stimulation condition, anti-CD3 was no longer added to the media starting on day 7. […]

adult CD8+ T cells = experiment: chronic TCR plus TGFβ1 stimulation of adult CD8+ T cells from healthy blood donors; format: cell-based, human
Description: Isolated adult PBMCs were stained on day 0 for cell sorting of naïve CD8+ T cells (viable CD3+ CD8+ CCR7+ CD45RO−) and viable CD3− PBMCs using the Sony MA900 sorter. The cells were seeded into 96-well U-bottom plate (˜5,000 naïve T cells+45,000 CD3− cells per well) on day 0 with 30 ng/ml of purified anti-human CD3, in complete T cell medium as described above. On day 4, the wells were transferred to a 96-well flat-bottom plate coated with anti-human CD3 and CD28 antibodies as described above, and stimulation was continued for an additional three days. On day 7, the cells were returned to culture with continuous stimulation using soluble anti-CD3 (30 ng/ml) or repeated plate-bound anti-CD3 stimulation through day 28. Media was replenished every 2-3 days. Treatments were added to the media as described above for CBMCs experiments.

human CD8 T cells = experiment: treatment of human CD8 T cells with BMP ligands under chronic strong TCR stimulation; format: cell-based; details: for expression levels of terminal exhaustion-associated molecules (CD39, CD101, CD103): day 21; for frequencies of IFNγ-producing CD8 T cells: days 14 and 21
Source text: BMP ligands can signal through type 1 (BMPR1, ACVR1) or type 2 receptors (BMPR2, ACVR2), which typically form heterotetramers upon ligand binding. Once heterotetramers are activated by ligands, they phosphorylate SMAD1/5/8 that binds to SMAD4 and translocates to nucleus and bind to target genes.

[3] = tested on: SMAD1/5/8 phosphorylation; details: cited from earlier work
[4] = adult naïve CD8+ T cells, post-effector exposure

## O=C1O[C@H]([C@@H](O)CO)C(O)=C1O [vitamin C]
Dysf. CD8+ T cells
  effector cytokine production: further enhanced
Human CD8+ T cells [1]
  DNA methylation patterns in Dysf. CD8+ T cells: more pronounced

## TGFβ1: Human TGFβ1 cytokine (5 ng/ml, Peprotech)
P14 CD8 T cells; persistent treatment for 11 days from day 6 of co-culture
  production of IFNγ and TNFα: accelerated the impairment
P14 CD8 T cells; persistent treatment from day 6
  expression of T-bet and Granzyme B: repressed expression
Human CD8+ T cells [2]; TGFβ1 started after effector differentiation (day 7-28)
  effector functions in chronically stimulated T cells: significantly reduced
Human CD8+ T cells [2]; strong TCR stimulation
  survival of chronically stimulated CD8+ T cells: supported the survival
Adult CD8+ T cells; [4]
  expression of dysfunction-associated markers: increased expression
  function of chronically stimulated adult CD8+ T cells: induced functional impairment
Adult CD8+ T cells; adult polyclonal effector memory (CD45RO+ CCR7−) CD8+ T cells
  polyfunctionality: did not impact
Adult CD8+ T cells; adult polyclonal effector memory CD8+ T cells
  CD103 expression: significant upregulation

B1: BMP4: natural BMP ligand, bone morphogenic protein 4 (protein, UniProt P12644 293-408, looked up)
Bone morphogenetic protein 4: SPKHHSQRARKKNKNCRRHSLYVDFSDVGWNDWIVAPPGYQAFYCHGDCPFPLADHLNSTNHAIVQTLVNSVNSSIPKACCVPTELSAISMLYLDEYDKVVLKNYQEMVVEGCGCR
modifications: Bone morphogenetic protein 4
Human CD8 T cells; chronic strong TCR stimulation
  numbers of chronically stimulated human CD8 T cells: preserved significantly higher numbers
Human CD8 T cells
  expression levels of terminal exhaustion-associated molecules (CD39, CD101, CD103): downregulated
  frequencies of IFNγ-producing CD8 T cells: significantly higher frequencies
[3]
  activation of SMAD1/5/8 phosphorylation: strong

B2: BMP6: natural BMP ligand (protein, UniProt P22004 375-513, looked up)
Bone morphogenetic protein 6: SASSRRRQQSRNRSTQSQDVARVSSASDYNSSELKTACRKHELYVSFQDLGWQDWIIAPKGYAANYCDGECSFPLNAHMNATNHAIVQTLVHLMNPEYVPKPCCAPTKLNAISVLYFDDNSNVILKKYRNMVVRACGCH
modifications: Bone morphogenetic protein 6
notes: natural BMP ligand
Human CD8 T cells
  expression levels of terminal exhaustion-associated molecules (CD39, CD101, CD103): downregulated
[3]
  activation of SMAD1/5/8 phosphorylation: strong

B3: BMP10: natural BMP ligand (protein, UniProt O95393 317-424, looked up)
Bone morphogenetic protein 10: NAKGNYCKRTPLYIDFKEIGWDSWIIAPPGYEAYECRGVCNYPLAEHLTPTKHAIIQALVHLKNSQKASKACCVPTKLEPISILYLDKGVVTYKFKYEGMAVSECGCR
Human CD8 T cells
  expression levels of terminal exhaustion-associated molecules (CD39, CD101, CD103): downregulated
  frequencies of IFNγ-producing CD8 T cells: significantly higher frequencies
[3]
  activation of SMAD1/5/8 phosphorylation: medium or weak

B4: BMP12: BMP ligand (protein, UniProt Q7Z4P5 322-450, looked up)
Growth/differentiation factor …: TALAGTRTAQGSGGGAGRGHGRRGRSRCSRKPLHVDFKELGWDDWIIAPLDYEAYHCEGLCDFPLRSHLEPTNHAIIQTLLNSMAPDAAPASCCVPARLSPISILYIDAANNVVYKQYEDMVVEACGCR
[3]
  activation of SMAD1/5/8 phosphorylation: medium or weak

B5: BMP14: BMP ligand (protein, UniProt P43026 382-501, looked up)
Growth/differentiation factor …: APLATRQGKRPSKNLKARCSRKALHVNFKDMGWDDWIIAPLEYEAFHCEGLCEFPLRSHLEPTNHAVIQTLMNSMDPESTPPTCCVPTRLSPISILFIDSANNVVYKQYEDMVVESCGCR
modifications: Growth/differentiation factor 5
notes: BMP ligand
[3]
  activation of SMAD1/5/8 phosphorylation: medium or weak
